Patent US20140056903A1 (Regeneron, published 2014)

T1: monkey GFRα3 expressed with a C-terminal myc-myc-hexahistidine tag (monkey (Mf), UniProt O60609 32-374 (human entry), limits assumed)
T1 construct: also called MfGFRα3-mmh; MfGFRα3-mmH
T1 chain: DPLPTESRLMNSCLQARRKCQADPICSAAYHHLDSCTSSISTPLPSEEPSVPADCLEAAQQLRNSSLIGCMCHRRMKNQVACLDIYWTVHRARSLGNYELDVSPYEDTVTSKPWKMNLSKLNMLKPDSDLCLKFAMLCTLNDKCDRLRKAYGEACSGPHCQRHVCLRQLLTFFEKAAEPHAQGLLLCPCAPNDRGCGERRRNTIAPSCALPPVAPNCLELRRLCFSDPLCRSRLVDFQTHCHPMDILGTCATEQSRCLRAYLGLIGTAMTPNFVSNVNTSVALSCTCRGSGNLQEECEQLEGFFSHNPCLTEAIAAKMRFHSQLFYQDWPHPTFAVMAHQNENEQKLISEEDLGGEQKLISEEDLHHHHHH

T2: human GFRα3 on HEK293/hGFRα3/hRET/SRE-luc cells (human, UniProt O60609 32-382)
T2 sequence: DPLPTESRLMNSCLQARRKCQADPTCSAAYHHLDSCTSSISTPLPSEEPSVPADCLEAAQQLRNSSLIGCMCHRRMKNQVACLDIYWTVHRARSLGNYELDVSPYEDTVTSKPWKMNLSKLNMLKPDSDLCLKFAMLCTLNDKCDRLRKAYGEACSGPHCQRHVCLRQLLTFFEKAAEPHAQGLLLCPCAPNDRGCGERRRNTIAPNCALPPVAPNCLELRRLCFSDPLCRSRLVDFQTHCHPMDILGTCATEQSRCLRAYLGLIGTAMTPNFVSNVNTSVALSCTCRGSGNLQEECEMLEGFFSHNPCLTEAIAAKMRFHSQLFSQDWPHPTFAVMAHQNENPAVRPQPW


Assays:
[1] = target: T3, human GFRα3 expressed with a C-terminal myc-myc-hexahistidine tag (human, UniProt O60609 32-374, biotinylated (sites not given) in ELISA format 2 and in the Octet cross-competition; not in SPR); experiment: SPR, Ab captured, 25C
T3 construct: also called hGFRα3-mmh; hGFRα3-mmH
Method: (§1) Antibodies were tested for binding to human GFRα3 expressed with either a C-terminal myc-myc-hexahistidine tag (hGFRα3-mmh; SEQ ID: 370, a C-terminal hFc tag (hGFRα3-hFc; SEQ ID:371), or a C-terminal mFc tag (hGFRα3-mFc; SEQ ID:372), as well as monkey GFRα3 expressed with a C-terminal myc-myc-hexahistidine tag (MfGFRα3-mmh; SEQ ID:373). Anti-GFRα3 antibodies were captured on either a goat anti-mouse IgG polyclonal antibody (GE Healthcare, #BR-1008-38) or a mouse anti-human IgG monoclonal antibody (GE Healthcare, #BR-1008-39) surface created through direct amine coupling to a Biacore CM5 sensor chip. Kinetic experiments were carried out using HBS-EP (10 mM HEPES, 150 mM NaCl, 3 mM EDTA, 0.05% Surfactant P20, at pH 7.4) or PBS buffer containing 0.05% v/v surfactant P20 as both the running buffer and the sample buffer. Binding to human GFRα3-mmh or monkey GFRα3-mmh was evaluated by injecting several concentrations ranging from 200 to 7.4 nM (3-fold dilutions) across the captured antibody surface. Binding to human GFRα3-mFc or human GFRα3-hFc was evaluated by injecting several concentrations ranging from 100 to 3.7 nM (3-fold dilutions) across the captured antibody surface. Antibody-antigen association was monitored for up to 4 minutes, while dissociation in buffer was monitored for up to 20 minutes. Kinetic association (kₐ) and dissociation (kd) rate constants were determined by processing and fitting the data to a 1:1 binding model using Scrubber 2.0c curve fitting software. Binding dissociation equilibrium constants (KD) and dissociative half-lives (t_{1/2}) were calculated from the kinetic rate constants as: KD (M)=kd/kₐ and t_{1/2} (min)=[ln 2/(60*kd)].

[2] = target: T4, human GFRα3 expressed with a C-terminal hFc tag (human); experiment: SPR, Ab captured, 25C
T4 construct: also called hGFRα3-hFc
Method: as §1

[3] = target: T1, monkey GFRα3 expressed with a …; experiment: SPR, Ab captured, 25C
Method: as §1

[4] = target: T3, human GFRα3 expressed with a C-terminal …; experiment: SPR, Ab captured, 37C
Method: as §1

[5] = target: T4, human GFRα3 expressed with a C-terminal …; experiment: SPR, Ab captured, 37C
Method: as §1

[6] = target: T1, monkey GFRα3 expressed with a …; experiment: SPR, Ab captured, 37C
Method: as §1

[7] = target: T2, human GFRα3 on …; experiment: cell-based or functional assay

Row | Kd [1] | koff [1] | kon [1] | t1/2 [1] | Kd [2] | koff [2] | kon [2] | t1/2 [2] | Kd [3] | koff [3] | kon [3] | t1/2 [3] | Kd [4] | koff [4] | kon [4] | t1/2 [4] | Kd [5] | koff [5] | kon [5] | t1/2 [5] | Binder | other results
1 | 0.275 nM | 0.000208 s⁻¹ | 760000 M⁻¹ s⁻¹ | 56 min | 0.0137 nM | 1.76e-05 s⁻¹ | 1.28e+06 M⁻¹ s⁻¹ | 11 h | 0.97 nM | 0.000286 s⁻¹ | 296000 M⁻¹ s⁻¹ | 40 min | 0.532 nM | 0.00055 s⁻¹ | 1.03e+06 M⁻¹ s⁻¹ | 21 min | 0.061 nM | 9.65e-05 s⁻¹ | 1.58e+06 M⁻¹ s⁻¹ | 120 min | H1M2236N (antibody, V domains shown, chimeric, human variable and mouse constant domains (H1M)) VH: EVQLLESGGNLVQPGGSLRLSCAASGFTFSSYAMTWVRQAPGKGLEWVSTISGSGTSTYYADSVKGRFTISRDNSRDTVFLQMNSLRAEDTAVYYCSKPSALRFLHWLCMDVWGQGTLVTVSS VL: DIQMTQSPSSLSAFVGDRVTITCRASQDIRNYLDWFQQKPGKAPKSLIYAASNLQSGVPSRFGGSGSGTDFTLTINSLQPEDFVTYYCQQYNSYPPTFGGGTKVEIK | Kd [6]: 2.58 nM; koff [6]: 0.00112 s⁻¹; kon [6]: 434000 M⁻¹ s⁻¹; t1/2 [6]: 10 min
2 | 2.04 nM | 0.000261 s⁻¹ | 128000 M⁻¹ s⁻¹ | 44 min | ≤ 0.0075 nM | ≤ 1e-06 s⁻¹ | 134000 M⁻¹ s⁻¹ | 192 h | 10.2 nM | 0.000658 s⁻¹ | 64600 M⁻¹ s⁻¹ | 18 min | 4.35 nM | 0.000595 s⁻¹ | 137000 M⁻¹ s⁻¹ | 19 min | 0.117 nM | 2.18e-05 s⁻¹ | 186000 M⁻¹ s⁻¹ | 529 min | H1M2243N (antibody, V domains shown, chimeric, human variable and mouse constant domains (H1M)) VH: QVQLVQSGAEVKKPGASVKVSCKASGYTFTSYGIIWVRQAPGQGLEWMGWISGYNGNTNYTQNLQGRVTMTTDTSTTTAYMELRSLRSDDTAVYYCARWGIATRPYYYYGMDVWGQGTTVTVSS VL: DIQMTQSPSSLSASVGDRVTITCRASQDITNYLAWFQQKPGKAPKSLIYAASSLQSGVPSKFSGSGSGTDFTLTISSLQPEDFATYYCQQYNSYPPTFGPGTKVDIK | Kd [6]: 54.7 nM; koff [6]: 0.00275 s⁻¹; kon [6]: 50200 M⁻¹ s⁻¹; t1/2 [6]: 4 min
3 | – | – | – | – | – | – | – | – | – | – | – | – | – | – | – | – | – | – | – | – | H4H2210N (antibody, human IgG4, V domains shown) VH: EVQLLESGGGLVQPGGSLRVSCAASGFTFSTSAMSWVRQAPGKGLEWVSGISGIGGGSTYYADSVKGRFTISRDNSKNTLYLQMNSLRAEDTAVYFCAKFYKWNSYIFDLWGQGTMVTVSS VL: EIVLTQSPDTLSLSPGERATLSCRASQSVSSSYFAWYQQKPGQAPRLLMYSASSRATGIPDRFSGSGSGTDFSLTISRLEPEDFAVYYCQQYGRSLTFGGGTKVEIK | IC50 (SRE-luc, HEK293/hGFRα3/hRET cells, 100 pM hARTEMIN-mmH) [7]: 2.9 nM
4 | 12.8 nM | 0.000863 s⁻¹ | 67300 M⁻¹ s⁻¹ | 13 min | 0.22 nM | 3.69e-05 s⁻¹ | 168000 M⁻¹ s⁻¹ | 5.22 h | 28.9 nM | 0.0012 s⁻¹ | 41600 M⁻¹ s⁻¹ | 10 min | 15.8 nM | 0.00335 s⁻¹ | 212000 M⁻¹ s⁻¹ | 3 min | 0.242 nM | 7.66e-05 s⁻¹ | 316000 M⁻¹ s⁻¹ | 151 min | H2aM2210N (antibody, mouse IgG2, V domains shown, chimeric, mouse IgG2 Fc (H2M/H2aM); also called H2M2210N) VH: EVQLLESGGGLVQPGGSLRVSCAASGFTFSTSAMSWVRQAPGKGLEWVSGISGIGGGSTYYADSVKGRFTISRDNSKNTLYLQMNSLRAEDTAVYFCAKFYKWNSYIFDLWGQGTMVTVSS VL: EIVLTQSPDTLSLSPGERATLSCRASQSVSSSYFAWYQQKPGQAPRLLMYSASSRATGIPDRFSGSGSGTDFSLTISRLEPEDFAVYYCQQYGRSLTFGGGTKVEIK | Kd [6]: 76.4 nM; koff [6]: 0.00618 s⁻¹; kon [6]: 80900 M⁻¹ s⁻¹; t1/2 [6]: 2 min
5 | 16 nM | 0.0009 s⁻¹ | 56100 M⁻¹ s⁻¹ | 13 min | 0.163 nM | 2.6e-05 s⁻¹ | 159000 M⁻¹ s⁻¹ | 7.4 h | 97.2 nM | 0.00388 s⁻¹ | 39900 M⁻¹ s⁻¹ | 3 min | 10.8 nM | 0.00144 s⁻¹ | 133000 M⁻¹ s⁻¹ | 8 min | 0.531 nM | 0.000108 s⁻¹ | 203000 M⁻¹ s⁻¹ | 107 min | H1M2207N (antibody, V domains shown, chimeric, human variable and mouse constant domains (H1M)) VH: EVQLVESGGGLVQPGRSLRLSCAASGFTFNDYAMHWVRQAPGKGLEWVSGISWNSGNIGYADSVKGRFTISRDNAKNSLYLQMNSLRAEDTALYFCARDTRMATRPFDYWGQGTLVTVSS VL: not shown | Kd [6]: 145 nM; koff [6]: 0.00663 s⁻¹; kon [6]: 45800 M⁻¹ s⁻¹; t1/2 [6]: 2 min
6 | 1.08 nM | 0.000711 s⁻¹ | 657000 M⁻¹ s⁻¹ | 16 min | 0.101 nM | 9.6e-05 s⁻¹ | 950000 M⁻¹ s⁻¹ | 2 h | 1.34 nM | 0.000571 s⁻¹ | 427000 M⁻¹ s⁻¹ | 20 min | 3.43 nM | 0.00272 s⁻¹ | 793000 M⁻¹ s⁻¹ | 4 min | 0.116 nM | 0.000146 s⁻¹ | 1.26e+06 M⁻¹ s⁻¹ | 79 min | H2aM2234N (antibody, mouse IgG2, V domains shown, chimeric, mouse IgG2 Fc (H2M/H2aM); also called H2M2234N) VH: EVQLLESGGGLVQSGGSLRLSCAASGFSFNNYAMSWVRQAPGKGLEWVSFISGSGGSTYYADSVKGRFTISRDNSKNTLYLQMNSLRVEDTAVFYCAKDRYNYGTFFDYWGQGTLVTVSS VL: not shown | Kd [6]: 4.91 nM; koff [6]: 0.00211 s⁻¹; kon [6]: 429000 M⁻¹ s⁻¹; t1/2 [6]: 5 min
7 | 0.197 nM | 0.000158 s⁻¹ | 800000 M⁻¹ s⁻¹ | 73 min | 0.0128 nM | 1.44e-05 s⁻¹ | 1.12e+06 M⁻¹ s⁻¹ | 13.3 h | 0.293 nM | 0.000112 s⁻¹ | 384000 M⁻¹ s⁻¹ | 103 min | 0.297 nM | 0.000303 s⁻¹ | 1.02e+06 M⁻¹ s⁻¹ | 38 min | 0.0413 nM | 6.17e-05 s⁻¹ | 1.49e+06 M⁻¹ s⁻¹ | 187 min | H1M2212N (antibody, V domains shown, chimeric, human variable and mouse constant domains (H1M)) VH: EVQLLESGGGLVQPGGSLRLSCAASGFTFSSYAMSWVRQGPGKGLEWVSGISGSGGSTYNADSVKGRFTISRDNSKNTLYLQMNSLRAEDTAVYYCAKDSGTYWYYFDYWGQGILVTVSS VL: not shown | Kd [6]: 0.294 nM; koff [6]: 0.00026 s⁻¹; kon [6]: 884000 M⁻¹ s⁻¹; t1/2 [6]: 44 min
